One block for each molecule: values may come before it.
Legend:
[1] = molecular target: ΔCARD human caspase 9 (lacking the first 138 residues) with Ala substitutions at residues 304 to 306 (human) (UniProt P55211); assay: caspase-9 inhibition assay, ratio of Ki(app)
[2] = molecular target: ΔCARD human caspase 9 (lacking the first 138 residues) with Ala substitutions at residues 304 to 306 (human) (UniProt P55211); assay: Ki(app), inhibition of ΔCARD caspase-9 hydrolysis of Ac-LEHD-AFC
[3] = molecular target: ΔCARD human caspase 9 (lacking the first 138 residues) with Ala substitutions at residues 304 to 306 (human) (UniProt P55211); assay: Ki(app), inhibition of ΔCARD caspase-9 hydrolysis of Ac-LEHD-AFC; too low to measure accurately
[4] = molecular target: T1, caspase-9 zymogen precursor (overexpressed in 293T cells) (UniProt P55211 1-416); assay: co-immunoprecipitation (anti-Flag) from 293T lysates, Western blot with anti-caspase-9
T1 sequence (looked up): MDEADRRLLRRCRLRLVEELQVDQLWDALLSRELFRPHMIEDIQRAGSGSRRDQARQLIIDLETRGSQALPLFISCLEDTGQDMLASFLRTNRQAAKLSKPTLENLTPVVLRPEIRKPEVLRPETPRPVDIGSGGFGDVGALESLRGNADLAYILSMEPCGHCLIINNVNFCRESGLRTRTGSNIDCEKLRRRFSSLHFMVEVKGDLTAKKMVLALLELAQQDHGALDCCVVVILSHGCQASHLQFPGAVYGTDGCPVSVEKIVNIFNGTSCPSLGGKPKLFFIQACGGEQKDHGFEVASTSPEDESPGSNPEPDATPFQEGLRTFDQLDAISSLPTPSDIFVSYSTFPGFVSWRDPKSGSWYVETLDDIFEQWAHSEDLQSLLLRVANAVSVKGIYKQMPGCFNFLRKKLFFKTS
Experimental: 293T cells were transiently transfected with caspase-9 and Flag-tagged BIR domain proteins or vector. After 40 h, cells were lysed in NP40 lysis buffer (120 mM Tris, 150 mM NaCl, 1% NP-40, 1 mM DTT and protease inhibitor cocktail) and lysates immunoprecipitated (IP) with anti-Flag antibody. Samples were then Western blotted with anti-caspase-9 and anti-Flag antibodies. […] When overexpressed, caspase-9 undergoes autocatalytic processing and it is the processed form that physically interacts with XIAP and ML-IAP BIR domains.

[5] = molecular target: ΔCARD human caspase 9 (lacking the first 138 residues) with Ala substitutions at residues 304 to 306 (human) (UniProt P55211); assay: caspase-9 inhibition assay, ratio of Ki(app); remark: listed apart in the source
[6] = molecular target: ΔCARD human caspase 9 (lacking the first 138 residues) with Ala substitutions at residues 304 to 306 (human) (UniProt P55211); assay: Ki(app), caspase-9 inhibition; lower end tied by Table 7 to full-length ML-IAP (3,200 nM)
[7] = molecular target: ΔCARD human caspase 9 (lacking the first 138 residues) with Ala substitutions at residues 304 to 306 (human) (UniProt P55211); assay: Ki(app), caspase-9 inhibition; upper end tied by Table 7 to MLBIR-Q (4,600 nM)

Molecule: MLXBIR3SG (ML-IAP chimera: ML-IAP-BIR framework with XIAP-BIR3 residues 336-348 in place of 160-179 and S150G)
- Ki [3]: < 1 nM

Molecule: XIAP-BIR3 (third BIR of XIAP, residues 252-348) (from UniProt P98170 252-348)
- Ki [2]: 13 nM

B1: Flag-tagged ML-IAP-BIR (expressed in 293T cells) (other, human, UniProt Q96CA5 63-179, looked up)
chain: TEEEEEEGAGATLSRGPAFPGMGSEELRLASFYDWPLTAEVPPELLAAAGFFHTGHQDKVRCFFCYGGLQSWKRGDDPWTEHAKWFPSCQFLLRSKGRDFVHSVQETHSQLLGSWDP
notes: domain: BIR; also called MLBIR; wild-type ML-IAP-BIR; not shown: Flag tag
- binding result [4]: no binding

B2: full-length ML-IAP with N-terminal His6-tag (protein, human, UniProt Q96CA5 1-298, looked up, not shown: small tags and cut ends)
chain: MGPKDSAKCLHRGPQPSHWAAGDGPTQERCGPRSLGSPVLGLDTCRAWDHVDGQILGQLRPLTEEEEEEGAGATLSRGPAFPGMGSEELRLASFYDWPLTAEVPPELLAAAGFFHTGHQDKVRCFFCYGGLQSWKRGDDPWTEHAKWFPSCQFLLRSKGRDFVHSVQETHSQLLGSWDPWEEPEDAAPVAPSVPASGYPELPTPRREVQSESAQEPGGVSPAEAQRAWWVLEPPGARDVEAQLRRLQEERTCKVCLDRAVSIVFVPCGHLVCAECAPGLQLCPICRAPVRSRVRTFLS
- fold lower potency for inhibition of caspase-9 relative to XIAP [5]: 300 fold
- Ki [2]: 3200 nM
- Ki [6]: 3000 to 5000 nM

Other lines, results leading:

- fold better at inhibiting caspase-9 than MLBIR-Q [1]: 5 fold
- fold less potent at inhibiting caspase-9 than XIAP-BIR3 [1]: 70 fold
- Ki [2]: 962 nM
Molecule: MLXBIR3 (ML-IAP-BIR with amino acids 160-179 replaced by amino acids 336-348 of XIAP-BIR3) (from UniProt Q96CA5 63-159; P98170 336-348)

- Ki [2]: 4600 nM
- Ki [7]: 3000 to 5000 nM
B3: MLBIR-Q (C-terminally truncated variant of ML-IAP-BIR) (protein, human, UniProt Q96CA5 63-172, looked up, not shown: small tags and cut ends)
chain: TEEEEEEGAGATLSRGPAFPGMGSEELRLASFYDWPLTAEVPPELLAAAGFFHTGHQDKVRCFFCYGGLQSWKRGDDPWTEHAKWFPSCQFLLRSKGRDFVHSVQETHSQ

Source: US20050214802A1 (Genentech, published 2005)
